Our source for the Y586通道PE荧光值 values is CN114106174A (SUZHOU SCENE MEDICAL SCIENCE AND TECH LIMITED COMPANY, dated 2022).

The labels stand for the following.
T1: OX40 on OX40-overexpressing cells (OX40过表达细胞表面OX40) (UniProt P43489 29-277, limits assumed)
T1 construct: whole, on cells; The cell line and the construct of the overexpressing cells are not described; also called CD134; TNFRSF4
T1 sequence (looked up): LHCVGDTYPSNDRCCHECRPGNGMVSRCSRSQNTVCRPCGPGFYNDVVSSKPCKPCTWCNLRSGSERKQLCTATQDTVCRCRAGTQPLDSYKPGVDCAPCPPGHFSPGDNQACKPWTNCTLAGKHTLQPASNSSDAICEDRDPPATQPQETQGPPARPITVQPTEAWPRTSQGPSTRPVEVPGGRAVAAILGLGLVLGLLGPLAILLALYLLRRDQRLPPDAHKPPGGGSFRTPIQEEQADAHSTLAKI

B1: 15A7-6 (antibody, V domains shown)
VH: QVQLQESGPGLVKPSGTLSLTCAVSGGSINSSSWWSWVRQPPGKGLEWIGEIYHSGDTNYNPSLKSRVAISVDKSKNQFSLKLSSVTAADTAVYYCARDQADYFGSGNYVYWGQGTLVTVSS
VL: EIVLMQYPGTLSLSSGERRVLSCRPSQSVSSSYLAWYQQKPGQAPRLLIYGASSRASGIPDRFSGSGSGTDFTLTISRLEPEDFAVYYCQQYGSLPITFGQGTRVEIKR
B2: 24F8-7 (antibody, V domains shown)
VH: QVQLQESGPGLVKPSGTLSLTCAVSGGSISSYNWWSWVRQPPGKGLEWIGEIYHSGSTNYNPSLKSRVTISVDKSKNQFSLKLSSVTAADTAVYYCARDEDYYGSGNYYHWGQGTLVTVSS
VL: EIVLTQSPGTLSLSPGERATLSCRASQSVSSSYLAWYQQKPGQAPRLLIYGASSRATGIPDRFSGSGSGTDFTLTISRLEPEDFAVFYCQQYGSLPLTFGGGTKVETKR
B3: 21D2-3 (antibody, V domains shown)
VH: QVQLVESGGGLVKPGGSLRLSCAASGFTFSDYYMSWIRQAPGKGLEWVSYISSSGTTIYCADSVKGRFTISRDNAKNSLYLQMNSLRAEDTAVYYCARDSSTWYEGNYFDYWGQGTLVTVSS
VL: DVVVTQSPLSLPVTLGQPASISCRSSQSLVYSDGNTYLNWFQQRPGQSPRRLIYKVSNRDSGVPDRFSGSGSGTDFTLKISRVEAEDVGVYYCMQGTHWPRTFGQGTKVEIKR
B4: 1F10-12-3 (antibody, V domains shown)
VH: QVQLQESGPGLVKPSGTLSLTCAVSGGSISNSNWWNWVRQPPGRGLEWIGEIYHSGSTNYNPSLKSRVTISVDKSKNQFSLKLTSVTAADTAVYYCARYSTPFFDYWGQGNLVTVSS
VL: DIQMTQSPSSLSASVGDRVTITCRASQSISNYLNWYQQKQGKAPKLLIYGASSLQSGVPSRFSGSGSGTDFTLTINSLQPEDFATYCCQQSYNNPLTFGGGTKVEIKR
B5: 55H6-6 (antibody, V domains shown)
VH: QVQLVQSGAEVKKPGASVKVSCKASGYTFTSYGISWVRQAPGQGLEWMGWISAYNGHTNYAQKLQGRVTMTTDTSTNTAYMELWSLRSDDTAVYYCTSDYGDYWGQGTLVTVSS
VL: DVVVTQSPLSLPVTLGQPASISCRSSQSLVYSDGNTNLYWFQQRPGQSPRRLIYQVSNRDSGVPDRFSGSGSGTDFTLKISRVEAEDVGVYYCMQGTHWPPALTFGGGTEVEIKR
B6: 14D3-7-3 (antibody, V domains shown)
VH: EVQLVESGGGLVKPGGSLRLSCAASGFTFSNAWMSWVRQAPGKGLEWVGRIKRKTDGGTTDYATPVKGRFTISRDASKNTLYLQMNSLKTEDTAVYYCTSAARRGYFDIWGRGTLVTVSS
VL: EIVLTQSPGTLSLSPGERATLSCRASQSVSSRYLAWYQQKPGQAPRLLIYGASNRATGMPDRFSGSGSGTDFTLTISRLEPEDFAMYYCQQYGSSPITFGQGTRLEIKR
B7: 20D2-12 (antibody, V domains shown)
VH: QVQLVESGGGLVKPGGSLRLSCAASGFTFSDYYMSWIRQAPGRGLEWISYISGSDSTIYYEDSVMGRFTISRDNAKNSLYLQMNSLRAEDTAVYYCARDRDVYGYSGYGYFDYWGQGTLVTVSS
VL: EIVLTQSPGTLSLSPGERATLSCRASQSVSSRYLAWYQQKPGQAPRLLIYGASNRATGMPDRFSGSGSGTDFTLTISRLEPEDFAVYYCQQYGSSPITFGQGTRLEIKR
B8: 20G6-7-1 (antibody, V domains shown)
VH: QVQLQESGPGLVKPSGTLSLTCAVSGGSISSSNWWSWVRQPPGKGLEWIGEIYHSGNTNYNPSLKSRVTISVDKSKNQFSLKLSSVTAADTAVYYCARGGTTFDYWGQGTLVTVSS
VL: EIVLMQYPGTLSLSSGERATLSCRASQSVSSRYLAWYQQKPGQAPRLLIYGASNRASGMPDRFSGSGSGTEFTLTISSLEPEDFAMYYCQQYGSSPITFGQGTRVEIKR
B9: 24E10-4 (antibody, V domains shown)
VH: QVQMQESGPGLVKPSGTLSLTCAVSGGSISSSKWWSWVRQPPGKGLEWIGEIYHSGSTNYNPSLKSRVTISIDKSKNQFSLRLTSVTAADTAVYYCARGDVLLWFGGQGTLVTVSS
VL: EIVLTQSPGTLSLSPGERATLSCWASQSVSSTYLAWYQQKPGQAPRLLIYGASIRATGIPDRFSGSGSGTDFTLTISSLEPEDFAVYYCQQYGSSPITFGQGTRLEIKR
B10: 30B1-3 (antibody, V domains shown)
VH: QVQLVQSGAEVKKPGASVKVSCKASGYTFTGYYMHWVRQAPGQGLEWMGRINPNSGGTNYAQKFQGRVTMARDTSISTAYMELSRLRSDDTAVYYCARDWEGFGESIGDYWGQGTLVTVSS
VL: EIVLTQSPGTLSLSPGERATFSCRASQSVSGSYLAWYQQKPGQAPRLLIHGASSRATGIPDRFSGSGSGTDFTLTISRLEPEDFAVYYCLQYGSSPLTFGGGTKVEIKR
B11: 24F10-1 (antibody, V domains shown)
VH: QVQLQESGPGLVKPSGNLSLTCVVSGASIINNNWWTWVRQSPGKGLEWIGEIFHSGTTNYNPSLKNRVTISVDKAKNQFSLNLKSVTAADTAVYYCVAYVSGTYYNFDYWGQGTLVTVSS
VL: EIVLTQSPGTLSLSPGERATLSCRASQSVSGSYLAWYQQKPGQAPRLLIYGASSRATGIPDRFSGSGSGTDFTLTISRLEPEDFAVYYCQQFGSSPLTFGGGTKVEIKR

In this test the target is T1, OX40 on OX40-overexpressing cells …. Kind of test: flow cytometry, hybridoma supernatant on OX40-overexpressing cells, goat anti-mouse IgG-PE. On the technique in general: A flow cytometer gives signals particle by particle.
On to B1, for which the Y586通道PE荧光值 is 181000.
B2 displayed a Y586通道PE荧光值 of 437000.
B3 came in with a Y586通道PE荧光值 of 202000.
Next, B4: 170000.
Next, B5: 479000.
Then B6, with 274000; and B7, with 540000; and B8, with 352000.
Molecule B9 registered a Y586通道PE荧光值 of 344000.
B10: the Y586通道PE荧光值 came out at 208000.
For the molecule B11, the Y586通道PE荧光值 turned out to be 274000.
